Data: patent US20100175139A1, “SOMATO[…]” (priority 2007, published 2010)

How the values were obtained:
Assay type in all cases: cell-based
[1] = tested on: SBE4 responsive element (smad2/3 mediated transcriptional activation); test: SBE4 responsive element luciferase reporter in NIH-3T3 cells; conditions: transgenic TGF-β3 over-expression vs control GFP retrovirus, 48 hours
From the text: (§1) NIH-3T3 cells were transfected with plasmids containing TGF-β responsive elements driving luciferase expression. These cells were then transduced with a retroviral vector expressing TGF-β3. The SBE4 responsive element is specific to TGF-β activation via smad2/3 mediated transcriptional activation. This Smad activation can be further delineated to Smad2 specific transcriptional activation using the ARE responsive element in conjunction with the xenopus Fast-1 transactivator (ARE alone is only Smad2/3 specific). The BMP-specific responsive element activates through Smad1/5/8 activation and should not be responsive to TGF-β3 activity. […] The experiment was conducted as follows:
(§2) NIH-3T3 cells pre-plated at 1×10^6 cells/well and transfected with 10 μg of reporter plasmid by standard Calcium Phosphate precipitation. After 48 hours cells were transduced with either rKat.TGF-β3 or a control rKat.cmvGFP retrovirus. […] After 48 hours luciferase expression was measured in cell lysates. […] Relative luciferase activity was expressed in arbitrary units with respect to total protein measured by standard Bradford assay as by manufacturer's instructions (BioRad, Herts, UK).

[2] = tested on: ARE responsive element (Smad2/3 specific); test: ARE responsive element luciferase reporter in NIH-3T3 cells; conditions: TGF-β3 over-expression
From the text: as §1, §2

[3] = tested on: ARE responsive element with xenopus Fast-1 transactivator (Smad2 specific); test: ARE/Fast-1 responsive element luciferase reporter in NIH-3T3 cells; conditions: TGF-β3 over-expression
From the text: as §1, §2

Smad7 promoter = Smad7 promoter luciferase reporter in NIH-3T3 cells; conditions: TGF-β3 over-expression
From the text: as §1, §2

[4] = tested on: BMP responsive element BRE (Smad1/5/8); test: BMP responsive element BRE luciferase reporter in NIH-3T3 cells (negative control); conditions: TGF-β3 over-expression
From the text: as §1, §2

[5] = tested on: MDF-CAGA(12)-Luc cells (Smad2/3 specific transcriptional activation); test: CAGA(12)-Luc reporter in primary murine dermal fibroblasts; conditions: conditioned medium from TGF-β3 over expressing cells vs GFP control
Description: A cell line transgenic for a synthetic TGF-β responsive element driving the firefly luciferase gene was generated from primary mouse dermal fibroblasts. The CAGA(12) Smad Binding Element (SBE) was placed upstream of a minimal promoter and will respond to Smad2/3 specific transcriptional activation. Primary murine dermal fibroblasts (MDF) were transduced with a lentiviral vector containing the CAGA(12)-Luc element. These cells were then incubated in conditioned medium from MDFs transduced with a lentivector expressing either TGF-β3 or GFP. The experiment was carried out as follows:
Murine dermal fibroblasts (MDF) were isolated as previously described by DiPersio et al. (DiPersio, C. M., S. Shah, and R. O. Hynes. 1995. alpha 3A beta 1 integrin localizes to focal contacts in response to diverse extracellular matrix proteins. J Cell Sci 108 (Pt 6):2321-36) and expanded to ˜60% confluence and transduced with a lentivector expressing a luciferase reporter gene under the control of either a smad 2/3-specific CAGA(12) promoter. Lentiviral preps were generated as described in Example 1. […] Relative luciferase activity was expressed in arbitrary units with respect to total protein measured by standard Bradford assay as by manufacturer's instructions (BioRad, Herts, UK).

[6] = tested on: 293T cells transduced with Lenti/CAGA(12)-Luc; test: Lenti/CAGA(12)-Luc reporter in 293T cells with or without human αvβ3 integrins; conditions: conditioned medium from cells over-expressing TGF-β3
From the text: Human embryonic kidney 293T cells stably expressing the human αvβ3 integrins and control 293T cells were transduced with the Lenti/CAGA(12)-Luc vector to generate two transgenic lines. Again, these cells were subjected to conditioned medium from cells either over-expressing TGF-β3 or control cells. In more detail:
Human 293T cells stably transfected with αv and β3 integrin (293Tab) along with 293T controls were a kind gift from Dr. John Olsen, UNC, USA. 293T cells and 293Tabs were transduced with Lenti-CAGA(12)-Luc and human DFs were tranduced with lentivirus either expressing human TGF-β3iresGFP, mutant TGF-β3iresGFP or a GFP control. Cells were cultured for a further 48 hours prior to trypsinisation and mixing of 293 cells and transduced DFs in a 1:1 ratio. Cells were incubated for a further 24 hours in serum containing medium then incubated for 48 hours in serum depleted medium supplemented with ITS+1 (Sigma-Aldrich). Cells were subsequently either FACS analysed, to assess the ratio of 293T cells to DFs, or lysed for the purpose of quantifying the luciferase expression.

B1: TGF-β3: TGF-β3 over-expressed from a retroviral/lentiviral vector; cells exposed by transduction or conditioned medium (protein, UniProt P10600 301-412, looked up)
Transforming growth factor …: ALDTNYCFRNLEENCCVRPLYIDFRQDLGWKWVHEPKGYYANFCSGPCPYLRSADTTHSTVLGLYNTLNPEASASPCCVPQDLEPLTILYYVGRTPKVEQLSNMVVKSCKCS
For B1, which “upregulation of SBE4 element over controls (luciferase)” value [1] is on record?
The value was about 1000 fold.

What about the “luciferase response of ARE element over controls” value [2] of the same molecule?
The value was “significant responses over controls”.

What about the “luciferase response of ARE/Fast-1 element over controls” value [3] of the same molecule?
The value was “significant responses over controls”.

And the “luciferase response of Smad7 promoter over controls” value (Smad7 promoter)?
Its value is “significant responses over controls”.

And the “luciferase response of BRE element over controls” value [4]?
Its value is “did not show a significant response over controls”.

And the “luciferase response compared to control” value [5]?
Its value is “significant luciferase response”.

What about the “luciferase output in αvβ3 expressing cell lines compared to control 293T cells” value [6] of the same molecule?
Its value is “significantly enhanced”.
